Test results reported in PMC4457943.
Like-named read-outs stand apart in the source and are kept apart here.

B1: interleukin-9 receptor α-subunit (IL-9Rα), stably transfected in Kit225/IL-9R cells (receptor)
chain: SVTGEGQGPRSRTFTCLTNNILRIDCHWSAPELGQGSSPWLLFTSNQAPGGTHKCILRGSECTVVLPPEAVLVPSDNFTITFHHCMSGREQVSLVDPEYLPRRHVKLDPPSDLQSNISSGHCILTWSISPALEPMTTLLSYELAFKKQEEAWEQAQHRDHIVGVTWLILEAFELDPGFIHEARLRVQMATLEDDVVEEERYTGQWSEWSQPVCFQAPQRQGPLIPPWGWPGNTLVAVSIFLLLTGPTYLLFKLSPRVKRIFYQNVPSPAMFFQPLYSVHNGNFQTWMGAHGAGVLLSQDCAGTPQGALEPCVQEATALLTCGPARPWKSVALEEEQEGPGTRLPGNLSSEDVLPAGCTEWRVQTLAYLPQEDWAPTSLTRPAPPDSEGSRSSSSSSSSNNNNYCALGCYGGWHLSALPGNTQSSGPIPALACGLSCDHQGLETQQGVAWVLAGHCQRPGLHEDLQGMLLPSVLSKARSWTF
B2: interleukin-9 receptor α-subunit (IL-9Rα), endogenous in MT-2 cells (receptor)
chain: SVTGEGQGPRSRTFTCLTNNILRIDCHWSAPELGQGSSPWLLFTSNQAPGGTHKCILRGSECTVVLPPEAVLVPSDNFTITFHHCMSGREQVSLVDPEYLPRRHVKLDPPSDLQSNISSGHCILTWSISPALEPMTTLLSYELAFKKQEEAWEQAQHRDHIVGVTWLILEAFELDPGFIHEARLRVQMATLEDDVVEEERYTGQWSEWSQPVCFQAPQRQGPLIPPWGWPGNTLVAVSIFLLLTGPTYLLFKLSPRVKRIFYQNVPSPAMFFQPLYSVHNGNFQTWMGAHGAGVLLSQDCAGTPQGALEPCVQEATALLTCGPARPWKSVALEEEQEGPGTRLPGNLSSEDVLPAGCTEWRVQTLAYLPQEDWAPTSLTRPAPPDSEGSRSSSSSSSSNNNNYCALGCYGGWHLSALPGNTQSSGPIPALACGLSCDHQGLETQQGVAWVLAGHCQRPGLHEDLQGMLLPSVLSKARSWTF

Assays:
Experiment in all cases: FRET or BRET
[1] = biological target: MHC class I heavy chain (human (endogenous in Kit225/IL-9R and MT-2)) (UniProt P04439)
[2] = biological target: MHC class II glycoprotein (HLA-DR) (human (endogenous in Kit225/IL-9R and MT-2))
[3] = biological target: MHC class I heavy chain (human (endogenous in Kit225/IL-9R and MT-2)) (UniProt P04439); remark: listed apart in the source
[4] = biological target: MHC class II glycoprotein (HLA-DR) (human (endogenous in Kit225/IL-9R and MT-2)); remark: listed apart in the source

Molecule	FRET efficiency E (%) [1] [%]	FRET efficiency E (%) [2] [%]	FRET efficiency E (%) [3] [%]	FRET efficiency E (%) [4] [%]
IL-2 receptor α chain (IL-2Rα) (from UniProt P01589 22-272)	22.5	11.9	21.7	21.9
B1	–	–	17.2	15.9
B2	–	–	13.5	10.2
